Results on three molecules are retold here after patent US20050202009A1 (published 2005).

For this assay, the target named is HLA-DR4 (DRB1*0401) (human). Description: in vitro peptide competition assay, purified HLA-DR, biotinylated HA(307-319) reporter.

B1: melanotransferrin p97(668-683) (peptide)
peptide: GQDLLFKDATVRAVPV
notes: Eluted from HLA-DR of dendritic cells; also called 13
For B1, the binding result is given as “binds”.

As for DKARVEVERDNLAEDIM (Eluted from HLA-DR of dendritic cells) [vimentin(167-183)], the binding result is “binds”.

Turning to TLQSFRQDVDNASLAR (Eluted from HLA-DR of dendritic cells) [vimentin(202-217)], the binding result is reported as “binds”.
